B1: Seneca valley virus (nucleic acid)
DNA: TTTGAAATGGGGGGCTGGGCCCTGATGCCCAGTCCTTCCTTTCCCCTTCCGGGGGGTTAACCGGCTGTGTTTGCTAGAGGCACAGAGGGGCAACATCCAACCTGCTTTTGCGGGGAACGGTGCGGCTCCGATTCCTGCGTCGCCAAAGGTGTTAGCGCACCCAAACGGCGCACCTACCAATGTTATTGGTGTGGTCTGCGAGTTCTAGCCTACTCGTTTCTCCCCCGACCATTCACTCACCCACGAAAAGTGTGTTGTAACCATAAGATTTAACCCCCGCACGGGATGTGCGATAACCGTAAGACTGGCTCAAGCGCGGAAAGCGCTGTAACCACATGCTGTTAGTCCCTTTATGGCTGCAAGATGGCTACCCACCTCGGATCACTGAACTGGAGCTCGACCCTCCTTAGTAAGGGAACCGAGAGGCCTTCGTGCAACAAGCTCCGACACAGAGTCCACGTGACTGCTACCACCATGAGTACATGGTTCTCCCCTCTCGACCCAGGACTTCTTTTTGAATATCCACGGCTCGATCCAGAGGGTGGGGCATGACCCCTAGCATAGCGAGCTACAGCGGGAACTGTAGCTAGGCCTTAGCGTGCCTTGGATACTGCCTGATAGGGCGACGGCCTAGTCGTGTCGGTTCTATAGGTAGCACATACAAAT
B2: Wobbly possum disease virus (nucleic acid)
DNA: CGGCTGTGAGTGCTTAGCATATGCTAGAGTACTACAGCCGGGTGTTGGAGTCATATGCACTGGTTGCCTGTATAATAGTCGGGATCTGTCTGACCTACATTATCTTTGGGAGTTGCTTATCACGACAATTCTCGAAGTGTCTGTCGACAGCTTACCCCCGATTCGACAAGGCCCCTTGTCCACCGCAGACCTATCGATTTTCAACGAGAACACTATCAGAGGTTTAAATTTAAAACTCACCAACA
B3: Avian orthoreovirus segment S1 (nucleic acid, listed as Avian orthoreovirus)
DNA: GCTTTTTCAATCCCTTGTGTCGATGTTCCCGTATGTCATCTGGTTCATGTAACGGTGCAACTTCTATTTTTGGTAACGTTCACTGTCAGGCAGCGCAAAACTCGGCGGGTGGTGATCTTCAAGCGACTTCCTCTCTTGTTGCTTATTGGCCCTACTTGGCTGCGGGCGGTGGTCTGCTCGTTGTTATTATTATAATTGTTGGCGCTGTTTGTTGTTGCAAGGCTAAGGTTAAAGCGGACGCAGCCCGAAACGTTTTCTACCGAGAGCTGTTCGCACTTAATTCGGGTAAAAGTGATGCAGGACCTCCGATTTACCAGGTTTAGTGTACGACGATTTGAGTTTTCACCTTTCGTCTTAGAGGAGTGCACTACTCCATCTTTCACGACTATAACTAATACCGATCCGGCTCTCTACTTTAACATTGAGTTTCCGTCAAGTCATCGTCTCTCCCCCTTCATTCCAGAACTGTTGTCTCAGCCTTGTACCGTTCACGTTTCATTGATTCGGAGATTCGCTCTCTGTGCAACCTTATCTAGTATTTGTGAATACGACTGTGCGCTACTGCCATCCATCAACGCTATTACGACGATCCCTACACCAGGTGCGTCATCATCTCTGATTGTTCATTGGG
B4: Caprine Kobuvirus d10 (nucleic acid, listed as Kobuvirus sp.)
DNA: GGGGCCTCGGCCCCCTCACCCTCTTTTCCGGTGGCCACGCCCGGGCCACCGATACTTCCCTTCACTCCTTCGGGACTGTTGGGGAGGAACACAACAGGGCTCCCCTGTTTTCCCATTCCTTCCCCCTTTTCCCAACCCCAACCGCCGTATCTGGTGGCGGCAAGACACACGGGTCTTTCCCTCTAAAGCACAATTGTGTGTGTGTCCCAGGTCCTCCTGCGTACGGTGCGGGAGTGCTCCCACCCAACTGTTGTAAGCCTGTCCAACGCGTCGTCCTGGCAAGACTATGACGTCGCATGTTCCGCTGCGGATGCCGACCGGGTAACCGGTTCCCCAGTGTGTGTAGTGCGATCTTCCAGGTCCTCCTGGTTGGCGTTGTCCAGAAACTGCTTCAGGTAAGTGGGGTGTGCCCAATCCCTACAAAGGTTGATTCTTTCACCACCTTAGGAATGCTCCGGAGGTACCCCAGCAACAGCTGGGATCTGACCGGAGGCTAATTGTCTACGGGTGGTGTTTCCTTTTTCTTTTCACACAACTCTACTGCTGACAACTCACTGACTATCCACTTGCTCTCTTGTGCCTTTCTGCTCTGGTTCAAGTTCCTTGATTGTTTTTGACTGCTTTTCACTGCTTTTCTTCTCACAATCCTTGCTCAGTTCAAAGTC
B5: Yak enterovirus (nucleic acid, listed as Enterovirus sp.)
DNA: CTCCGGCACAGCCGCACCAGTGCACTGGTACGCTAGTACCTTTTCACGGGGTAGTCGGTATCCCCCCCCGTAACTTAGAAGCATGTAACAAACCGACCAATAGGTGCGCGGCAGCCAGCTGCGTTGCGGTCAAGCACTTCTGTCTCCCCGGTCCGCAAGGATCGTTACCCGCCCACTCCACTACGAGGAGCCTAGTAACTGGCCAAGTGATTGCGGAGTTGCGTTCAGCCACAACCCCAGTGGTAGCTCTGGAAGATGGGGCTCGCACATCCCCCGTGGTAACACGGTTGCTTGCCCGCGTGTGCTTCCGGGTTCAGTCTCCGACTGTTCACTTCAACATCACGCAACCAGCCAAGAGCCGATTGTGCTGGAGTGGTCTTCCTCCGGGGCCGTGAATGCTGCTAATCCTAACCTCCGAGCGTGTGCGCACAATCCAGTGTTGCTACGTCGTAACGCGTAAGTTGGAGGCGGAACAGACTACTTTCGGCACCCCGTGTTTCCTTTATTTTATTCTTATTTTATGGTGACAATTGCAGAGATTTGTGATATTGCGACTTTACCGTTAAACATAGCACTGCATTACCTGGTTGCATTCCACAAAACTTCAGAGATTCCTAGTTCCTACATTGACCTACTTGTTTATTTGAATCTTAAATACAAACTTGAGCAAGTGAA
B6: Shingleback nidovirus 1 (nucleic acid)
DNA: CTGTGAGTACCGACAGGCTCGAAGTCTATTATGAGGCGTCGAAACAGAAAACCTGTAACAACTCCGGTTTCATCTATCACTGCCGTCAAGAGGCAGAAGAGGACGACCACGTGTCACCAGATCACTTGTATCTGTTTCAGTCAGGAAGTCAACTTTTCGACGAAGTTCGACCATTCATCGACCCGCTGAAAAGCGTAGAAGTCGATGAAGATGAGCTCCAAAGAGCCATCGCCGATTTCGACAACCAAAGTGACTGTTTCCACTCCTTCGAGCTCGTGAATTTCGAGCTGAAACAACAAATCAACGAGAACGAGTGGTACGGTTATTATAATTACGACAACCAAAACTGCAAAGTTCAGTTGCCAGTCACATGTCGAATCGAGGACGTAACCTGGGATCAGGTTTACGTG
modifications: Shingleback nidovirus 1
B7: Sclerotinia sclerotiorum dsRNA mycovirus-L (nucleic acid)
DNA: TTGAATTAATCTTTTACGTTTACGCGCATAAAATCAGGACACATCTCTTGTATACTTTAGTATATCAATGATGTTTTTGTTTTATGCGATTAATCGTAAGAGAACTTCTTTCCATCCGCCTGTATGGGCGGGATAATAAGTTCACCGCCTTGGTCGAGGCGCAAACTTGTATGTGCAAAGGTGAGCTATATGCTCGAAATAGTCGTAACTAACACACAGCCACTACCTGTAGAGCTCTATTGATCCGGAATCCTTTAGTGGGAATGCAGAGCTCACACCGGACCTGCGGGTATCTTCGGCGTTAGGGACTTCTGTTTCAGCCTTGAATCATTTACCTTTATACCTTCTCTGAGGCGCCTGGGCCGGGCGCGATATTAAGTACAAGTCAAGGACATCGCGGGTAGTGGTCTAATCAGCCGCTAGTCCTGCTGGAGAGTTCCAACTTAGTTGGGTGTGGTGCATACTAGCTGGATAGAGTAGGTATGTATTGCTAACGTATGCCGGAGGCTATCCGTCCTCGGTAGAACGTGCCGAGGAGTAGTCTCTGCAGACCCCCGAACGCGTGGGGTCTTTACTTAAATGTAGGCGGAGGGAGCGCTCGTAGGTGGAACGACTGCCTCCCAGTCGAATGCAAGATTTTGCACGCGGACCAGTCTGCCCGGCAATTCCCGGGTG
B8: Caprine Kobuvirus d20 (nucleic acid, listed as Kobuvirus sp.)
DNA: CCCCCTCACCCTCTTTTCCGGTGGCCACGCCCGGGCCACCGATACTTCCCTTCACTCCTTCGGGACTGTTGGGGAGGAACACAACAGGGCTCCCCTGTTTTCCCATTCCTTCCCCCTTTTCCCAACCCCAACCGCCGTATCTGGTGGCGGCAAGACACACGGGTCTTTCCCTCTAAAGCACAATTGTGTGTGTGTCCCAGGTCCTCCTGCGTACGGTGCGGGAGTGCTCCCACCCAACTGTTGTAAGCCTGTCCAACGCGTCGTCCTGGCAAGACTATGACGTCGCATGTTCCGCTGCGGATGCCGACCGGGTAACCGGTTCCCCAGTGTGTGTAGTGCGATCTTCCAGGTCCTCCTGGTTGGCGTTGTCCAGAAACTGCTTCAGGTAAGTGGGGTGTGCCCAATCCCTACAAAGGTTGATTCTTTCACCACCTTAGGAATGCTCCGGAGGTACCCCAGCAACAGCTGGGATCTGACCGGAGGCTAATTGTCTACGGGTGGTGTTTCCTTTTTCTTTTCACACAACTCTACTGCTGACAACTCACTGACTATCCACTTGCTCTCTTGTGCCTTTCTGCTCTGGTTCAAGTTCCTTGATTGTTTTTGACTGCTTTTCACTGCTTTTCTTCTCACAATCCTTGCTCAGTTCAAAGTC
B9: Caprine Kobuvirus d30 (nucleic acid, listed as Kobuvirus sp.)
DNA: CTCTTTTCCGGTGGCCACGCCCGGGCCACCGATACTTCCCTTCACTCCTTCGGGACTGTTGGGGAGGAACACAACAGGGCTCCCCTGTTTTCCCATTCCTTCCCCCTTTTCCCAACCCCAACCGCCGTATCTGGTGGCGGCAAGACACACGGGTCTTTCCCTCTAAAGCACAATTGTGTGTGTGTCCCAGGTCCTCCTGCGTACGGTGCGGGAGTGCTCCCACCCAACTGTTGTAAGCCTGTCCAACGCGTCGTCCTGGCAAGACTATGACGTCGCATGTTCCGCTGCGGATGCCGACCGGGTAACCGGTTCCCCAGTGTGTGTAGTGCGATCTTCCAGGTCCTCCTGGTTGGCGTTGTCCAGAAACTGCTTCAGGTAAGTGGGGTGTGCCCAATCCCTACAAAGGTTGATTCTTTCACCACCTTAGGAATGCTCCGGAGGTACCCCAGCAACAGCTGGGATCTGACCGGAGGCTAATTGTCTACGGGTGGTGTTTCCTTTTTCTTTTCACACAACTCTACTGCTGACAACTCACTGACTATCCACTTGCTCTCTTGTGCCTTTCTGCTCTGGTTCAAGTTCCTTGATTGTTTTTGACTGCTTTTCACTGCTTTTCTTCTCACAATCCTTGCTCAGTTCAAAGTC

The molecules below were run on HEK293 cells. Conditions: luminescence from secreted Gluc in supernatant 24 hours after transfection of HEK293 cells; circular RNA encoding Gluc with the named IRES (UTR truncated to 675 nt).
Type: cell-based, human
B1 was tested, and the Expression was 1.46E+07.
B2 was tested, and the Expression was 2.60E+05.
Molecule B3 has an Expression of 4.37E+05.
B4 showed an Expression of 2.20E+08.
B5 gave an Expression of 6.19E+06.
B6 gave an Expression of 2.62E+05.
B7 was tested, and the Expression was 1.69E+05.
Work on B8 yielded an Expression of 2.00E+08.
For B9, the Expression was 1.87E+08.
